In paper PMC9714796 (2022):

Target: T1, TGF-βRII-Fc (muTGFbRII-mFc) (mouse (from the printed name …, UniProt Q62312 24-166))
T1 chain: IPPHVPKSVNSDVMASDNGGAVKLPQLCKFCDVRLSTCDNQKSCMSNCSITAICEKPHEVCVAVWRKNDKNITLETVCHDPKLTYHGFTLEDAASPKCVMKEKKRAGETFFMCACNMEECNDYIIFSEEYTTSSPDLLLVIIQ
Test: SPR

koff: 0.0013 s⁻¹
B1: Transforming growth factor-β3 (TGF-β3) (ligand)
chain: ALDTNYCFRNLEENCCVRPLYIDFRQDLGWKWVHEPKGYYANFCSGPCPYLRSADTTHSTVLGLYNTLNPEASASPCCVPQDLEPLTILYYVGRTPKVEQLSNMVVKSCKCS
